Results reported in US20200332306.

What was measured:
[1] = target: Sth7710 Type I-E Cascade plus Cas3 nickase (Streptococcus thermophilus DGCC7710) (UniProt F2XG53); assay: cell_activity
[2] = system: Sth7710 Type I-E Cascade, Cas5, Cas6 and Cse1 each AtCBF1-linked (Streptococcus thermophilus DGCC7710); assay: cell_activity; details: PAM AA 5'; value for R1 guides pooled (A2+, A4+, A1-); SE 18.9; no-guide control 0

“GUGAUCCNNNNNNNNNNNNNNNNNNNNNNNNNNNNNNNNNGUUUUUCCCGCACACGCGGGGCAGCAGUAGUGUUACAGAAGCUAAACUCAACCA / CAGCAGTAGTGTTACAGAAGCTAAACTCAACCA / TGGTTGAGTTTAGCTTCTGTAACACTACTGCTG [R1 A4+ guide RNA ; R1 A4+ protospacer]” was tested, and the activity (% mutant reads) ([1]; paired nicking A4+/A1-, PAM AA 5') was 0.06 and the activity (anthocyanin positive cells) [2] was 153.
“GUGAUCCNNNNNNNNNNNNNNNNNNNNNNNNNNNNNNNNNGUUUUUCCCGCACACGCGGGGGAGGGUCUACUUCCAUCACCGUCUUGCUCGGUC / GAGGGTCTACTTCCATCACCGTCTTGCTCGGTC / GACCGAGCAAGACGGTGATGGAAGTAGACCCTC [R1 A2+ guide RNA ; R1 A2+ protospacer]” gave an activity (% mutant reads) ([1]; paired nicking A2+/A3-, A2+/A1- pair gave 0.02%, PAM AA 5') of 0.06 and an activity (anthocyanin positive cells) [2] of 153.
“GUGAUCCNNNNNNNNNNNNNNNNNNNNNNNNNNNNNNNNNGUUUUUCCCGCACACGCGGGGCACUACUGCUGUUCAUGUACAGUUUAAGCACUA / CACTACTGCTGTTCATGTACAGTTTAAGCACTA / TAGTGCTTAAACTGTACATGAACAGCAGTAGTG [R1 A3- guide RNA ; R1 A3- protospacer]” showed an activity (% mutant reads) ([1]; paired nicking A4+/A3-, PAM not printed for A3-) of 0.03.
In the case of “GUGAUCCNNNNNNNNNNNNNNNNNNNNNNNNNNNNNNNNNGUUUUUCCCGCACACGCGGGGUUUAUGGACAGAGCUCCAAGUGACCGAGCAAGA / TTTATGGACAGAGCTCCAAGTGACCGAGCAAGA / TCTTGCTCGGTCACTTGGAGCTCTGTCCATAAA [R1 A1- guide RNA ; R1 A1- protospacer]”, the activity (anthocyanin positive cells) [2] is reported as 153.
